The results in this text go back to patent publication US8026218 (UNIVERSITY OF ARIZONA, dated 2011).

What is called Ki is a measure of affinity in units of concentration, obtained from inhibition or displacement. A lower Ki goes with higher affinity. As a reminder, the IC50 is the concentration needed to halve the response being measured. Lower therefore signals higher potency.

The target in assay [1] is T1, rat µ opioid receptor (rat, UniProt P33535 1-398). Kind of assay: cell-based or functional assay.
T1 sequence (P33535 whole entry): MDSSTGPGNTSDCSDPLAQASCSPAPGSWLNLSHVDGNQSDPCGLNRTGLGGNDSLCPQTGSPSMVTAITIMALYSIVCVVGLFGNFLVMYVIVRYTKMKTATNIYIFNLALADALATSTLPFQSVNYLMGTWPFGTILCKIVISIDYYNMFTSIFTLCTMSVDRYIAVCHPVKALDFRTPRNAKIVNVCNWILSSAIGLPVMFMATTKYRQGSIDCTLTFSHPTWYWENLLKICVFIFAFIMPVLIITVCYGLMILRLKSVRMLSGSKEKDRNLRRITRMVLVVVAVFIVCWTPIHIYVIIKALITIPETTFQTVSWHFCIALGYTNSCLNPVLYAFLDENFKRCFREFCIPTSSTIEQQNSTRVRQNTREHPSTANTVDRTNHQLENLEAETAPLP
Assay [2] has as its target T2, human δ opioid receptor (human, UniProt P41143 1-372). Kind of assay: cell-based or functional assay.
T2 sequence (P41143 whole entry, stated change not applied): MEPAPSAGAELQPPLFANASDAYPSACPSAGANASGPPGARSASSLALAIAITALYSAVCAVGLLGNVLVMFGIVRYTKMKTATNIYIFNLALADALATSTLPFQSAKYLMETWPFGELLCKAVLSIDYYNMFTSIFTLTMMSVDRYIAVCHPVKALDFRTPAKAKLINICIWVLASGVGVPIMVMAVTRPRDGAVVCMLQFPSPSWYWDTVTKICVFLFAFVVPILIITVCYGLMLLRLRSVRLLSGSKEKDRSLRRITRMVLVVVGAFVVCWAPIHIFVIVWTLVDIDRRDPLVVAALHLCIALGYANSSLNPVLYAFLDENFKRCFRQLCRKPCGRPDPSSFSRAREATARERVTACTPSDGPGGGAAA
The target in assay [3] is T2, human δ opioid receptor. The assay can be described thus: competition vs [3H]DPDPE, membranes of hDOR-transfected HN9.10 cells.
Assay [4] has as its target T3, rat NK1 receptor (rat, UniProt P14600 1-407).
T3 construct: whole, on cells; Assayed as membrane preparations of transfected CHO cells; also called rNK1; rNK-1
Kind of assay: competition vs [3H]substance P, membranes of rNK1-transfected CHO cells.
T3 sequence (P14600 whole entry): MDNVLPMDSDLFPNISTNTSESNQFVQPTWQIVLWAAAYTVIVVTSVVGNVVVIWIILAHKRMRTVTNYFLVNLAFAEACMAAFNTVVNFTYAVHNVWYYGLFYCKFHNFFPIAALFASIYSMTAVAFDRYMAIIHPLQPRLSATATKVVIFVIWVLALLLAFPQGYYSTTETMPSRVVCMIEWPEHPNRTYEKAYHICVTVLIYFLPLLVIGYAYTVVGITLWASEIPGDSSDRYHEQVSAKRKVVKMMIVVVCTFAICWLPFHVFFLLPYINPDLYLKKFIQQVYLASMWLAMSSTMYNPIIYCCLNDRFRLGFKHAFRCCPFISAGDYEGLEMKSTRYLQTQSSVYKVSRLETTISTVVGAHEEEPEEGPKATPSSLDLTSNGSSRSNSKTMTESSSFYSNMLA

Assay [5] concerns the target T1, rat µ opioid receptor. The assay can be described thus: competition vs [3H]DAMGO, membranes of rMOR-transfected HN9.10 cells.
Assay [6] concerns the target µ opioid receptor of the guinea pig isolated ileum (guinea pig). Kind of assay: cell-based or functional assay.
Assay [7] addresses guinea pig NK1 receptor (guinea pig, UniProt P30547 1-407). Kind of assay: cell-based or functional assay.
Target sequence in this assay (P30547 whole entry): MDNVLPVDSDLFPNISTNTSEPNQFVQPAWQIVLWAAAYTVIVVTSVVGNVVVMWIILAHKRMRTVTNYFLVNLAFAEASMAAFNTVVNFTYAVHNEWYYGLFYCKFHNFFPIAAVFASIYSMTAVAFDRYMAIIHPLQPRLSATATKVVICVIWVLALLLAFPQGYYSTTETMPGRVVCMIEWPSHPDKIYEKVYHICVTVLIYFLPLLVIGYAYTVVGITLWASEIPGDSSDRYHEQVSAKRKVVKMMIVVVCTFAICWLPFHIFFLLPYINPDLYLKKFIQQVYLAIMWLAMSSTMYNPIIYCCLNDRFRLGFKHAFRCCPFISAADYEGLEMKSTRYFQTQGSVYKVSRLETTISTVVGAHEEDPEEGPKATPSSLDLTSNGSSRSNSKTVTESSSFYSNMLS
In assay [8] the target is T3, rat NK1 receptor. Kind of assay: competition vs [3H]substance P, membranes of rNK1-transfected CHO cells. This is another data set of the same source.
The target in assay [9] is T4, human NK1 receptor (human, UniProt P25103 1-407).
T4 construct: whole, on cells; Assayed as membrane preparations of transfected CHO cells; also called hNK1; human neurokinin-1 receptor
Kind of assay: competition vs [3H]substance P, membranes of hNK1-transfected CHO cells.
T4 sequence (P25103 whole entry): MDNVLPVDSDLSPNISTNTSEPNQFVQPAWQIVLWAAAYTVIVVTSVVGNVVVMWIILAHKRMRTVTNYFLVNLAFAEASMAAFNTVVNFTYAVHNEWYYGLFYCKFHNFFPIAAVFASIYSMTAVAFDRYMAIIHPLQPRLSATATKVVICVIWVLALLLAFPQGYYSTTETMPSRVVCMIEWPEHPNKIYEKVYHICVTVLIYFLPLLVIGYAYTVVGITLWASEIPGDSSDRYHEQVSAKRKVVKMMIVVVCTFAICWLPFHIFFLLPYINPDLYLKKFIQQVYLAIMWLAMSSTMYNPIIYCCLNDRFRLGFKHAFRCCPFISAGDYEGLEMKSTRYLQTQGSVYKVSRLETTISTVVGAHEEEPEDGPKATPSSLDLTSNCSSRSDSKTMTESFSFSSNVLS

The target in assay [10] is T5, rat NK1 receptor (rat, UniProt P14600 1-407).
T5 construct: whole, on cells; membrane preparations of the transfected cells were used; also called rNK1; rNK-1
The assay can be described thus: competition vs [3H]Substance P, rNK1 CHO cell membranes.
T5 sequence (P14600 whole entry): as the sequence (P14600 whole entry) above

For assay [11], the target named is T6, human NK1 receptor (human, UniProt P25103 1-407).
T6 construct: whole, on cells; membrane preparations of the transfected cells were used; also called hNK1; human neurokinin-1 receptor
The assay can be described thus: competition vs [3H]Substance P, hNK1 CHO cell membranes.
T6 sequence (P25103 whole entry): as the sequence (P25103 whole entry) above

In assay [12] the target is T7, rat µ opioid receptor (rat, UniProt P33535 1-398). The assay can be described thus: cell-based or functional assay. The source holds these as a separate data set.
T7 sequence (P33535 whole entry): as the sequence (P33535 whole entry) above
Assay [13] has as its target T8, human δ opioid receptor (human, UniProt P41143 1-372). Kind of assay: cell-based or functional assay. The source holds these as a separate data set.
T8 sequence (P41143 whole entry, stated change not applied): as the sequence (P41143 whole entry, stated change not applied) above
The target in assay [14] is T7, rat µ opioid receptor. Kind of assay: competition vs [3H]DAMGO, rMOR cell membranes.
Assay [15] concerns the target T5, rat NK1 receptor. Kind of assay: competition vs [3H]Substance P, rNK1 CHO cell membranes. This is another data set of the same source.
The target in assay [16] is T8, human δ opioid receptor. Kind of assay: competition vs [3H]DPDPE, hDOR cell membranes.
The target in assay [17] is T7, rat µ opioid receptor. The assay can be described thus: cell-based or functional assay. The source holds these as a separate data set.
Assay [18] deals with T8, human δ opioid receptor. Kind of assay: cell-based or functional assay. This is another data set of the same source.
Assay [19] deals with T5, rat NK1 receptor. The assay can be described thus: competition vs [3H]Substance P, rNK1 CHO cell membranes. This is another data set of the same source.
In assay [20] the target is T8, human δ opioid receptor. The assay can be described thus: competition vs [3H]DPDPE, hDOR cell membranes. The source holds these as a separate data set.
The target of assay [21] is T7, rat µ opioid receptor. The assay can be described thus: competition vs [3H]DAMGO, rMOR cell membranes. The source holds these as a separate data set.
For assay [22], the target named is guinea pig NK1 receptor (guinea pig, UniProt P30547 1-407). The assay can be described thus: cell-based or functional assay. This is another data set of the same source.
Target sequence in this assay (P30547 whole entry): as the sequence (P30547 whole entry) above
Assay [23] has as its target µ opioid receptor of the guinea pig isolated ileum (guinea pig, UniProt P97266 1-98). Kind of assay: cell-based or functional assay.
Assay [24] addresses T8, human δ opioid receptor. The assay can be described thus: cell-based or functional assay. This is another data set of the same source.
For assay [25], the target named is T8, human δ opioid receptor. The assay can be described thus: competition vs [3H]DPDPE, hDOR cell membranes. This is another data set of the same source.

Bridge positions count the residues as written; N and C are the ends. Square brackets hold non-standard residues; d marks the D form. Ends that are not written are not given here. * marks the point of attachment. NH(3,5-(CF3)2-benzyl) = FC(F)(F)c1cc(CN*)cc(C(F)(F)F)c1; OBzl(3,5-(CF3)2) = FC(F)(F)c1cc(CO*)cc(C(F)(F)F)c1; Met(O) = CS(=O)CC[C@H](N)C(=O)O; Abu = CC[C@H](N)C(=O)O; OBn = c1ccc(CO*)cc1

Chain of µ opioid receptor of the guinea pig isolated ileum (P97266 whole entry): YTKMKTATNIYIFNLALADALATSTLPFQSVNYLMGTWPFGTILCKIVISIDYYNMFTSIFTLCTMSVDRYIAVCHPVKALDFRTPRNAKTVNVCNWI

In the case of H-Y[dA]GFLPLW-{OBzl(3,5-(CF3)2)} (also: TFA salt, TFA salt; also called TY004) [H-Tyr-D-Ala-Gly-Phe-Leu-Pro-Leu-Trp-O-3,5-Bzl(CF3)2], in assay [1], the “[35S]GTP-γ-S binding Emax” value is 46%. In assay [2], the “[35S]GTP-γ-S binding EC50” value amounted to 9.6 nM, the “[35S]GTP-γ-S binding Emax” value came out at 44% and the “[35S]GTP-γ-S binding LogEC50” value is -8.09. In assay [3], this molecule displayed an inhibitory constant (Ki) of 5 nM and a LogIC50 of -7.97. In assay [4], this molecule registered an IC50 of 20.9 nM and a LogIC50 of -7.7. For the same molecule, in [5], the Ki came to 23.3 nM. Besides, the “GPI (µ) opioid agonist IC50” value in assay [6] amounted to 341 nM. Besides, the “Substance P GPI antagonist Ke” value in [7] was found to be 19.4 nM.
On to H-Y[dA]GFPLW-OBn (also: TFA salt, TFA salt; also called TY011) [H-Tyr-DAla-Gly-Phe-Pro-Leu-Trp-O-Bzl], for which, in [8], the inhibition constant (Ki) was found to be 270 nM and the LogIC50 is -6.1. Further, in assay [9], affinity was put at a Ki of 100 nM and the LogIC50 is -6.7.
Turning to Y[dA]GFPLW-{OBzl(3,5-(CF3)2)} (also called TY001) [TyrDAlaGlyPheProLeuTrpOBn(CF3)2], in assay [10], the IC50 was determined as 21.7 nM.
Turning to Y[dA]GF[Abu]W-{O‑Bzl(CF3)2} (also called NP33) [Tyr-DAla-Gly-Phe-α-Abu-Trp-O-Bzl(CF3)2], the Ki in assay [11] stood at 0.12 nM; in [14] it was 11.4 nM; in assay [15] it was 1.2 nM; in assay [16], 1.6 nM. Besides, the entries for the “GTP EMax” value in [12] and in assay [13] were 32 and 43, respectively.
Take H-Y[dA]GF[Met(O)]PLW-{OBzl(3,5-(CF3)2)} (also: TFA salt, TFA salt; also called TY023) [H-Tyr-D-Ala-Gly-Phe-Met(O)-Pro-Leu-Trp-O-3,5-Bzl(CF3)2]: in assay [2], the “[35S]GTP-γ-S binding Emax” value was 53% and the “[35S]GTP-γ-S binding LogEC50” value was -8.73. Besides, in assay [3], the affinity corresponds to a Ki of 4.8 nM and the LogIC50 was -7.92. In [4], this molecule showed an IC50 of 54.5 nM and a LogIC50 of -7.27. The “GPI (µ) opioid agonist IC50” value in assay [6] is 154 nM. Moreover, the “Substance P GPI antagonist Ke” value in assay [7] is 7.8 nM.

B1: H-Tyr-D-Ala-Gly-Phe-Nle-Pro-Leu-Trp-O-3,5-Bzl(CF3)2 (peptide)
peptide: YAGFXPLW
modifications: D-Ala at 2; Nle (norleucine, written X) at 5; C-terminal 3,5-bis(trifluoromethyl)benzyl ester
notes: TFA salt; also called TY018
In the case of B1, in assay [2], the “[35S]GTP-γ-S binding EC50” value came to 4 nM, the “[35S]GTP-γ-S binding Emax” value came out at 129% and the “[35S]GTP-γ-S binding LogEC50” value was -8.4. In assay [3], this molecule gave an inhibition constant (Ki) of 1.8 nM and a LogIC50 of -8.42. Besides, the “GPI (µ) opioid agonist IC50” value in [6] was 372 nM. For the same molecule, the “Substance P GPI antagonist Ke” value in assay [7] was determined as 7.9 nM.
H-Y[dA]GFPLW-{NMe‑Bn(CF3)2} (also: TFA salt, TFA salt; also called TY013) [H-Tyr-D-Ala-Gly-Phe-Pro-Leu-Trp-NMe-3,5-Bzl(CF3)2] gave a Ki in assay [8] of 6.1 nM. This molecule had a LogIC50 in assay [9] of -8.5.

B2: Tyr[DCysGlyPheCys]ProLeuTrpNHBn(CF3)2 (peptide)
peptide: Y[dC]GFCPLW-{NH(3,5-(CF3)2-benzyl)}
modifications: disulfide 2-5
notes: cyclic; also called TY039; [D-Cys2, Cys5]TY027
As for B2, the results for the “[35S]GTPγS binding EC50” value in assay [17] and in assay [18] were 118 nM and 0.9 nM, respectively. For the same molecule, the “[35S]GTPγS binding Emax” value in assay [17] was 17%; in assay [18], 37%. In addition, the “[35S]GTPγS binding LogEC50” value in assay [17] was -6.9; in assay [18] it was -9. Moreover, the figures for the LogIC50 in assay [19], in [20] and in assay [21] were -5.8, -7.6 and -6.4, respectively. The Ki in assay [20] is 11 nM; in [21] it was 200 nM.
Turning to YAGFXPLW (D-Ala at 2; Nle at 5 (written X); C-terminal O-3,5-Bzl(CF3)2 ester, also called TY018) [TyrDAlaGlyPheNleProLeuTrpOBn(CF3)2], the “GPI/LMMP SP antagonist Ke” value in assay [22] stood at 7.9 nM. For the same molecule, the “GPI/LMMP IC50” value in assay [23] was 372 nM. Moreover, in assay [24], the “GTP binding EC50” value came to 4 nM and the “GTP binding Emax” value was 131%. For the same molecule, the inhibition constant Ki in [25] came to 1.8 nM.
Regarding H-Y[dA]GFPLW-{NH(3,5-(CF3)2-benzyl)} (also: TFA salt, TFA salt; also called TY012) [H-Tyr-D-Ala-Gly-Phe-Pro-Leu-Trp-NH-3,5-Bzl(CF3)2], in [8], the Ki amounted to 33 nM and the LogIC50 is -7. This molecule came in with an inhibition constant (Ki) in assay [9] of 0.61 nM.
